This data set in a line: label from the status in PepcDB records.
On to “MKGVIMIIDGMADRPLEKLSGRTPLEAASTPNMDRIAESGINGIMDPIKPGVRAGSDTSHLSILGYDPYRVYTGRGPFEAAGVGLDVKPGDIAFRCNFATADEDMIITDRRAGRIRSGTSSIARTINSMTIEGFEDVEIIFRESTGHRAVLVLRGPGLGDKVSDADPKVEGKPPKKIKALDGSPESRKTAEVLNRIVKESYEILRDHPVNTGRIERGEAPANIILPRGAGAVPHVEKFQERYDLKAACIAETGLIKGIGHLTGMDVIDVEGATGGIDTDLESIKNAISSAIAADYDFLLINIDGADEAGHDGDLEGKVRFIERVDSILGDLMGDDIYFILTADHSTPVSVMDHTGDPVPIAITGPEVRVDDVTSFSERAAAAGGLCRIRGSDVMDILLDLMNKKEKFGALEHHHHHH”, for which the protein production result is “failed”.
As for “MKGVRSMMGNLVITIGRECGSAGRLIGQKLAADLGVKCYDKELLTLAAKNSGLCEELFKTHDEKPTSSFLYSLVMDTYSLGYNTSAYMDMPINHKIFLAQFDTIKKLAEEESCVIVGRCADYALADYPNTVSVFICGDEEDKIRHLMERHNVDEAKAKDIMIKTDKRRASYYNYYSSKRWGSCKSYDMCISSSAVGYDGAVDIIKEFAKKKQEFLKTKNYK”, the protein production result is reported as “not failed”.
Consider “MKHAKKSLFTFIIFMTILSITFNPFSAKAAPLMLNLPAPQVDQLYIGDDYITGKLQQEVPMHYPGNAAYVLFNNKQYNITDYTVENDVNFRLKLPKTLEAGDTLNYFTITGNVLDPVAYPGQESYKLAGPFSPIEKANIQVNYVDETNQTLATSDTLSGKLGETYTTSPKAIDGYQVKETPTNATGTYTTNTETIQINYVYEKTAVEGANVSVEYINEATNESIAPTETLSGKIGTTFQAEVKEIDGYELSQVPSNQSGTYTDQTQSVIFKYKKITTPDEVAKDVTVTYKDTKGNQLADPVILKGDIGSTFETEAKSFKGYKLTKTPSNHSSVFTSDSQEVEYVYSKDDAVITPPVTPVNPDKPIINPVKPVNPATSTVPNKNISKKNTTKTVNQTGKTSTALQLPKTGDSENNLPLIIGVSLLISGVYIFTTRRKRVK”, for which the protein production result is “failed”.
The result for “MKHGMNARKQLWIAVICMTFVVILGTIGFMTIEEISLFQAFWMTMITVLTVGYGDAVPVTQAGKVFALLIIPVGVGIVTYAIGVVAAMIIEGNLFHAVRRKKMDKQIAQLKNHIIVCGCGRVGLQVVHELQEKNIPFVVVDKDESILEQEKLLFVHGDATEDQVLHNAGILKAAGLVAIVANDAENVFITLTARGLNDTIKIVARSEKPETEEKLRRAGANKVINPSSMAGIHIAKGIANPLTVHYIDTVLYGIEQSFVIEEILVGKDSILVGKSLLESNVRNQFDVTILAISRNGDIIHNPAGQEKLKERDMIIVFGSVEKLGQFEKELQSTR” reads “failed”.
The same measure for “MKHIIILGDGMADWPAESLGNKTLLQYSSTPYMDKLAAMGRTGRLVTVAPGFHPGSEVANMSVMGYNLPKVYEGRGPLEAASIGVELQPGDMAMRCNIICIEDEKIKNHSAGHITTEEADVLVRYLEEKLGSDRIHFYTGVQYRHLLVIKGGNKQLDCTPPHDVPLQPFRPLMVKAEVPEAQETAGLINNLILASQELLADHPVNQKRIAEGKDPANSIWPWSPGYRPQMEPLSGKYPAIKKGAVISAVDLINGIGHYAGLRRIAVEGATGLYNTNYENKVAAALEALKTDDFVYLHIEASDEAGHEGDFKLKQFTIENLDKRVVGPVYEAVKDWDEPVAIAVLPDHPTPCELRTHTAEPVPFLIYYPGIEPDCVQTFDEVACVEGSYGILKEDEFMNEFMKK”: “failed”; for “MKHIQINPSILSADLARLGDDVKAVLAAGADNIHFDVMDNHYVPNLTFGPMVLKALRDYGITAGMDVHLMVKPVDALIESFAKAGATSIVFHPEASEHIDRSLQLIKSFGIQAGLALNPATGIDCLKYVESNIDRVLIMSVNPGFGGQKFIPAMLDKAKEISKWISSTDRDILLEIDGGVNPYNIAEIAVCGVNAFVAGSAIFNSDSYKQTIDKMRDELNKV”: “not failed”; for “MKHTLVITILIIMFSNGATAEEDKRSINESTTNMIAALQQKQWIHGSQDCKNNQDPAIEVFQYDESSYVLRQNKCLSYEAPFIYVLIGKEKILVVDTGATESAEEFPLYQTVQSLNQKHSDNGKTKEREIVVIHSHSHSDHYSADSQFVGQANVTVVAANNTGVNEFFDFEKWPEQQTNFELGGRSITIIPTPGHQEEAISVYDPQTKWLLTGDTFYPGYIYVKTWQDYKNSIARLVEFTNNHSVSAILGSHIEMTNKAGEYYEIGTIYQPNESSLLLTPSDLTALNEKLQQVDEPEKIAMDSLIVEPLGALPKLISSIAKWFIG”: “failed”.
“MKIAILCASGKVGKEISKEALKRNLEPVCFVRNSSKMNEFLPQAKIVQRDLFELDSKDLIDFDIIIDAFGEWENLSLHKKHIECLSVILQGSKAKLFVVGGAGSLYMDENHTTRLMDMPDFPKEYLDIAKASAEVLEFLRNEKGFKWVYVSPSAIFSPDLPKSNHYKIIGEKFEVNANNESKISYSDYASAMIDIVLNSCYENTRIGVISL”: the protein production entry was “failed”.
For the sequence “MKIAIVRLSALGDIIVSAVFLAVIKECLPNAQIEWFVDERFSAILEHSPYIDKLHPIALKSALKTLNPLKIFKLFKSLRAYEYDIIIDMQGLVKSALITQMLKAPKKVGFDYASAREGLSMFFYSQKVSIAYDEPVLKRNFTLLSHALNLPQKEISKEISESLSSRAKAFSYQPSPKIDALNLNKNKPKILFILETSKINKTYPIERFKELALILENFQICLLWHADEYKATTLYHALKHQRDVLLLPKLTLNEVKALLFKMDLIIGGDTGITHLAWALQKPSITLYGNTPMERFKLESPINVSLTGNSNANYHKKDFSIQNIEPKKIKECVLNILKEKE”, the protein production entry is “failed”.
In the case of “MKIALFGTSADPPTLAHRAILIWLAQHFDQVAVWAADNPFKQGPNPETGHWASLGDRQAMLKLLVEDVQKDYATVQIWEDLSDRRSLISLQRAQQRWGLEPDYALVVGADLIRQISQWYAVKELLPAVQLVIFPRPGYGINQADLDKLAQLGGHYQLVNQGDDQAITPPISSSIYRQIRDDDLIPDPVQSYIQQRQLYRQ”, the protein production entry was “failed”.
As for “MKIEQLYTGCLAEAAYYIESEGEAIIIDPLRDIQTYVQKIERNNVTLKYIFETHFHADFVSGHLDLAEATGATIVYGPKAETTFNSHIAYDGEKISIGKITLQVLHTPGHTQESSCYLLYDEDGNKHALFTGDTLFIGDVGRPDLAIKSDLTKEDLAGMLYDSLEEKIKPLPDAITIYPAHGAGSACGKNLSKETFDTLGSQKQKNYALKAADKETFIKQVLDDLQPAPSYFNMNALLNKEGPGSVSELIKQGSIAFDVQSFENLQRQTYAVLLDTRDAKEFKKGFIPGSINIGLNGQLAPWAGTLLTNSDKPILIITDPGKEEETIIRLARVGVDQVIGYLKDGYNSWQKANKPEENIETISAAELVEKLDENINILDVRKADEYEKGHLNAAQHLPLDYINDWITTLDKNKTYYVHCAGGYRSVITESILKSRNISNVIDVSGGYGAIKAAMEPTKKRWLNAFFSFMKVK”, the protein production result is “failed”.
On to “MKIFNLLVGGAPENLPDNLNDFEGDWIGVDRGALKLIEMGLIPEVAVGDFDSVNDQEFKEIEANAKQVIKLDPVKDDTDTESGLKYALDHDPRAHIRVLGISGGRLDHLLANVLMVLQDRFRMFAEQIELIDRQNNIRFFNSGKHTVDKLEGFKYLSFIPLTQIDVLTLDDEKYELHNAMVSNARAYVSNEFIDSKATVYLSNGLVAVIQSKD”, for which the protein production entry is “failed”.
Consider “MKIGIIGATGRAGSRILEEAKNRGHEVTAIVRNAGKITQTHKDINILQKDIFDLTLSDLSDQNVVVDAYGVSPDEAEKHVTSLDHLISVLNGTVSPRLLVVGGAASLQIDEDGNTLLESKGLREAPYYPTARAQAKQLEHLRSHQAEFSWTYISPSAMFEPGERTGDYQIGKDHLLFGSDGNSFISMEDYAIAVLDEIERPNHLNERFTVAGK”, for which the protein production entry was “failed”.
The same measure for “MKIIGFACQWCAYQAADLAGSLKMKYPESIRLLRVPCSGRVNAEFILKALLSGADGVFVAGCPISECHYRSGNRIAKTKVALLKRLLPEFGLESGRVEFLQVSSADARKFVEFAKEFDERIRKLG”: “failed”.
Take “MKIIIVGGGVTGSELARRLIRKKHDVVLIERDEETARHAANRLDCMVVQAAGNDTQILLDAGIKKAEAMIAVTDSDELNMIICGIADSLAPQVIKIARVRNEDYVKALNFSEERTLGINALVYPDEEAALAVIQAIEHGAVSDILSFENSSYELSRFNVCEKSTLDGLAVFDIRKYVDIPFIVVSVEQNGKNRIPSGDTILTAGTRVSILTKPEHIKRFYELSGFETQEFKKIALVGMGRIGKSIAEYLLKNSKGKSFLSKLLPINLNQKWKISIIETNDKKAKEVAAEFPEASIYKADVTDESFVDEIGLDSFDLVICTTPNYEFNMIACAYLKTLGVYKTISLVQSAVLENVAYKIGVDVAVSFKDVVVDSIMSHLVSENVTSVHTMGDGKLEIIELQVSEKSPVLGQKLKDISQHGVYLVLLVTDENGEQIPTGDTEVKAGYKIVFIVKSSRSDEIIKIFGGN”: the protein production result was “failed”.
“MKIILFLTLIVFTSCELYHYQECVRGTTVLLKEPCPSGTYEGNSPFHPLADNKFALTCTSTHFAFACADGTRHTYQLRARSVSPKLFIRQEEVQQELYSPLFLIVAALVFLILCFTIKRKTE”: the protein production result is given as “not failed”.
On to “MKILAIINPISGIGSKSNIPSLIADVFAHDPHELFITYSQRAGHARELAAQAVEKHYDCVIAVGGDGTVNEIAQSLRYTDVVLGIVPKGSGNGLARALKLPLTVGKALEVIRAGHVRTIDCCEADSR”, for which the protein production result is “failed”.
As for “MKILIVSNTALGDTILSTPLFRETRLALPKAHITALLNPVNAMLFETNPYLDKIELYGGRWRGFLGAWWKLWRRGFDVALLGHSNDPQITPLCLLLGISKIIKIPNHKNPWQRFHHNPLEHHHHHH”, the protein production entry is listed as “failed”.
As to “MKILKNSYESYIIAEFFKYFLITFLFFFFVFFINQILFFMRILLQNYVPFFKAFIFIIYSLPMVIALSPPFASLISVILTIHKFKLHNEILAFRSIGISIFDLLVPFFKLGIVIAFVSFISNDILLPLGSIGRLKIFNEIKEEVPHLVLKPYSSKQYGDLIFVSGEKSENGYKNVTFFDNTGLKGFDRIFMAKNLDIRKENFQVYFILNDVLSIALTDSESGFYDYFYADKMKYSIDQVTFSDSFLLNYVTPSQMSMRDVIKLIKKQNNLIADSNIKNNLEGDFLSLNFSNLYLNYLYNQNYYVDESYVFENLNYMYNLNLNFKPYQDRSMKQNLALFNLEFYQKISLPLSVLFFIFLAFSMGMYSNRKYSIILELVISIIVCVFYWVMFIGGKVYTVQYAPSPIIVTILPNLILIIAGAILFLRLLKK”, the protein production entry is listed as “failed”.
With “MKILLLGGNGFIGRRLAARLIEAGHELSAPSRVELDLARPNQDWAAWVDGVDAVANLAGAFRQGRAGGFEAIHHAGPLRLAALARAHGVRRWVQLSALGAAAHAGAPFLSSKGRGDAALLDCGMEAVVARPSLIYGADGASSRLLLRLARLPFWLLPEGGGQRIQPVAAADVAEGLQRLIEGDARGVIDFVGAAEASLADYLRQLRRLQGVGGAAWLCPVPAWLAAGLAAACGCWPGSLLNRDSLRMLRQGSTADPAAFAALLGRQPLSFRQFGEVA”, the protein production result is recorded as “failed”.
The same measure for “MKILQILSRLYVADLNPALEFYEELLETPVAMRFEIPQTGVELAQISTILLIAGSEEALKPFRNTQATFLVDSLDKFKTFLEENGAEIIRGPSKVPTGRNMTVRHSDGSVIEYVEHSKIE”: “not failed”.
Turning to “MKILVFGGTRFFGKKLVERLVSEGHDVTIGTRGKTEDNFGDTVKRVVLNRESRDALFQLAKEDWDVIYDNICFSPKEALYAVDAFKGKVKRYIYTSSLSVYSQKGRALVEADFNPEHYEIVIGDKEDFDYGEGKRLAEAVFFQKASFPVVAVRFPIVLGLDDYTKRLHFHINHIKNHQEIGISNGQAEIGFITSDEAAHFLEWVGVESDLTGPVNATSNGTYALNGFIKMLEEKIGELALVEEVTDDVDDSPFGIEKTYYLDNAKATEAGFVFNDLKVWLPALVTDILKENLEHHHHHH”, the protein production entry is given as “failed”.

The record behind these values is a protein production outcome set (Wang et al. 2014).
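Note: failed if final PepcDB status was selected cloned or expressed and not failed if soluble or beyond.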
